Data taken from patent US6458926.

Target: GAL-RXR (yeast GAL4 DBD linked to the human RXRα LBD) (yeast; human) (UniProt P04386)
Experiment: cell-based or functional assay

Chain of T3R LBD (SV40 TAg NLS fused upstream of human T3Rβ LBD) (P10828 other isoform, or with tags, fused parts or gaps): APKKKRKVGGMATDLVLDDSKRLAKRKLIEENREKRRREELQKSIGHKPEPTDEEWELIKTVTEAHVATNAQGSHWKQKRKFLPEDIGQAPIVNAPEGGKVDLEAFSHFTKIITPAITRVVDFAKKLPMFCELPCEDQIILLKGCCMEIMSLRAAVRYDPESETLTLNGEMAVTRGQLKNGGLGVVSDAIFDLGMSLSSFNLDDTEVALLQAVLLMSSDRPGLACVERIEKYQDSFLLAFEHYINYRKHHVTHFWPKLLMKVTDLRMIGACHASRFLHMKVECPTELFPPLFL

T3R LBD (SV40 TAg NLS fused upstream of human T3Rβ LBD) (from UniProt P10828 173-456)
fold response to LG69: 57 fold
